The values that follow come from patent US20090035818A1.

Experiment [1] deals with chicken egg yolk antibody (chicken IgY antibody) (chicken). Kind of experiment: SPR (Biacore 2000), chicken IgY on CM5 chip, lectin as analyte. Background: SPR reads the build-up and loss of mass on a sensor chip optically.
The target in experiment [2] is asialotransferrin (human) (UniProt P02787). Kind of experiment: SPR, asialotransferrin on CM5 chip, lectin as analyte.
Sequence of asialotransferrin (human) (P02787 20-698 limits assumed): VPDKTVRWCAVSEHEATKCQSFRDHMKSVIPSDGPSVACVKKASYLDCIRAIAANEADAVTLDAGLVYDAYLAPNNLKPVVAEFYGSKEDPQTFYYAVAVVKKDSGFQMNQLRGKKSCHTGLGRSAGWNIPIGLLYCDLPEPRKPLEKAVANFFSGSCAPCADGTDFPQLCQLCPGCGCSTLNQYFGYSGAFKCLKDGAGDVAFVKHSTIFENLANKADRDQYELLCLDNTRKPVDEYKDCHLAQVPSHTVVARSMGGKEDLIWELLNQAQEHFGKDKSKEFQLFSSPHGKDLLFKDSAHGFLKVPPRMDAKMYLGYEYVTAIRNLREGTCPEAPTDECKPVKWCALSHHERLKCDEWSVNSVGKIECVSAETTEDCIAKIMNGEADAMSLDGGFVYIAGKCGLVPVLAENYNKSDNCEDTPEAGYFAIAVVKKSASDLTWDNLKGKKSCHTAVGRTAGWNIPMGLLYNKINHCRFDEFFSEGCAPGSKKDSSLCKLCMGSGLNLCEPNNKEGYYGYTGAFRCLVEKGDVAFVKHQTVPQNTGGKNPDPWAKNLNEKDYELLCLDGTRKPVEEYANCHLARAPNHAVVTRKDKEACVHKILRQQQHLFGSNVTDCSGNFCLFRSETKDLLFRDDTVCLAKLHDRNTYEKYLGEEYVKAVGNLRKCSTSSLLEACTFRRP

A word on the Kd: it is the constant that tells how readily two partners part at equilibrium. Read a low Kd as tighter binding. As a reminder, the koff is the first-order rate constant of dissociation. High values mean fast dissociation, low ones slow dissociation. By kon is commonly meant the rate constant with which the complex forms. A high value points to faster complex formation. In experiment [1], “Solieria robusta-derived lectin Solnin B” yielded a Ka of 2.88e+07 M⁻¹, a Kd of 34.7 nM, an off-rate (koff) of 0.00564 s⁻¹ and an on-rate constant (kon) of 162000 M⁻¹ s⁻¹.
“Carpopeltis flabellata-derived lectin Carnin” had a Ka in experiment [2] of 1e+08 M⁻¹. Moreover, in experiment [1], the Ka is 6.57e+07 M⁻¹, the Kd amounted to 15.2 nM, the koff came to 0.00172 s⁻¹ and the kon was found to be 113000 M⁻¹ s⁻¹.
Consider “Hypnea japonica-derived lectin Hypnin A-1”, for which, in experiment [1], the Ka was 7.1e+07 M⁻¹, the Kd stood at 14.1 nM, the koff came out at 0.000298 s⁻¹ and the kon was found to be 21200 M⁻¹ s⁻¹.
For “Canavallia ensiformis-derived lectin Con A (from UniProt P02866 30-281)” the same measures were 1.87e+07 M⁻¹, 53.4 nM, 2.49e-05 s⁻¹ and 467 M⁻¹ s⁻¹.
